Paper PMC2766095

Assays:
[1] = biological target: IL-33/ST2 complex (human) (UniProt Q01638); assay: ITC
[2] = biological target: ST2 extracellular domain (ectodomain) (human) (UniProt Q01638); assay: ITC
[3] = biological target: ST2-Fc fusion protein (R&D Systems) (UniProt Q01638); assay: SPR

IL-1 receptor accessory protein (IL-1RAcP) extracellular domain (from UniProt Q9NPH3 21-367)
Kd [1]: 76 nM | dH [1]: -11 kcal/mol | stoichiometry N [1]: 1

human IL-33 (interleukin-33), recombinant mature IL-1-like form (ligand)
stoichiometry N [2]: 1

IL-33 E34K (ligand)
Kd [3]: 3.11 nM
